Experiment [1] concerns the target DMF5 TCR.
Experiment [2] addresses DMF5 TCR. As to the kind of experiment: flow cytometry of Jurkat/MA cells transduced with DMF5, stained with the pooled barcoded tetramer library.

Take “CMVpp65/HLA-A*02:01 tetramer (from UniProt P61769 21-119) (peptide-MHC)”: the percent tetramer-positive cells in experiment [1] was 0.1%. Consider “MART-1/HLA-A*02:01 tetramer (from UniProt P61769 21-119) (peptide-MHC)”, for which the percent DMF5 positive cells in experiment [2] came to 33%.

These data come from patent US20210371499A1.
